Data: patent US20090104178A1 (published 2009)

Molecular target: Purified recombinant EV CrmD protein (ectromelia virus)

Binder | Kd
hCCL28 (ligand) chemokine: SEAILPIASSCCTEVSHHISRRLLERVNMCRIQRADGDCDLAAVILHVKRRRICVSPHNHTVKQWMKVQAAKKNGKGNVCHRKKHHGKRNSNRAHQGKHETYGHKTPY | 2.8 nM
mCCL27 (ligand) LPLPSSTSCCTQLYRQPLPSRLLRRIVHMELQEADGDCHLQAVVLHLARRSVCVHPQNRSLARWLERQGKRLQGTVPSLNLVLQKKMYSHPQQQN | 8.5 nM
mCXCL14 (ligand) SKCKCSRKGPKIRYSDVKKLEMKPKYPHCEEKMVIVTTKSMSRYRGQEHCLHPKLQSTKRFIKWYNAWNEKRRVYEE | 3.2 nM
hCXCL14 (ligand) chemokine: SKCKCSRKGPKIRYSDVKKLEMKPKYPHCEEKMVIITTKSVSRYRGQEHCLHPKLQSTKRFIKWYNAWNEKRRVYEE | 7.1 nM
hCXCL13 (ligand) chemokine: VLEVYYTSLRCRCVQESSVFIPRRFIDRIQILPRGNGCPRKEIIVWKKNKSIVCVDPQAEWIQRMMEVLRKRSSSTLPVPVFKRKIP | 7.4 nM
mCCL25 (ligand) QGAFEDCCLGYQHRIKWNVLRHARNYHQQEVSGSCNLRAVRFYFRQKVVCGNPEDMNVKRAMRILTARKRLVHWKSASDSQTERKKSNHMKSKVENPNSTSVRSATLGHPRMVMMPRKTNN | 3.2 nM
